Measured values taken from the DeepSol protein solubility set.

Assay: soluble on expression in E. coli; label from the status in PepcDB or PDB records

Sequence | soluble on expression in E. coli
MAHHHHHHMQTNVLERIRALEADIERCIDSIVQQDLFAASIENERHRILLDHFTLQQVGIVRSTAEKLLDVYLDEDDIVQVQNAPAESPDNIAAAVKEFEAKIADIREYHHIYRDLPPVKDELAVPSPRLLDDIFTVHERYGACFDMDAHYNRYSAFMVHTKTLAEGCVSASAEVKKELAPLSPSSVLKWSSMWPGRLDFFSFTKALPQLLLHEVEAHRKIVGFALYKPFVAELLAYLEGFYRRIHPLKPAALERLMAEVESDAEKYWASLVEVKAEVTSVAATTAAASTEDEQADVQDVEDERVEEREAGGAAGSSSKGQTAAPVRIAVGNKVACGLAIPPSLRQHVKKFSLWPLPLIEKLIEDVGQASGTSDGAVASTSKLPTSVADVKMVCLMEAKAAALLQSFLYTTLETTNTSLLRDYSRTLEELENDREVAEQEFLDSLEEVRKNSADTMEGTVAHAAEYNLKLALEDSKGSRRGRHGKASAPAPVAAAPAAPELPLEEEEEQLIGENGEPIPRWLAQLHQLDKMFRCDVCGGTIYKGPKVFREHFGAERHAEGLRRLGVMHHLKSYEGITSIRQVVEMREQLTGGESGFRKRLRDNTDNEEIQDARGHVVTAKEYLRLQQRRR | not soluble
MAHHHHHHMRFLSSSAVSPSPIRPSTGGASGKERLHHELPILHWRAGGGGEVGGGQHDDADSSDEYNEAHLCCDDWASSPAEPAAAAATFQTRQSDTPDGLHVDSDDDDNADDDGGEDTAGQTWIEEALRRAEAKCAVLRLELTFATERAVAAEANARARERECAELHALASRMQAQLAAAQMTAEWATANTRADAEVQVAACTASLDDIAASAFSSPNSPNRLGTTSLSMRKGTALADGTVWRRRHDIVAQELATLKVSMAEQLAVLDRLGMQPPFSEELVCAAERRLRHVKVAHAPGTAMKASQPDATIPGTPHTLTRSTCVDSAASADLSAGGASVTATTKKIQVRNGNKIAALLNLRKQNRHQEKPAAAAADAMATGVTDSATTPSTSAPPVKRDGSEDCRTTLDAKENHYVV | not soluble
MAHHHHHHMRLYNSLKQELVAATGAKMLGSGGLIDWSKHQVFDNPSDISQTFNEIIDMLAEYFDVDVYATRLNYYRDGTQWKPQHHDSHAYGGRALREDFTVGLSLGATRSLLFVHEASQRDFNFPQLNGDCFAFTGEVNSLFTHGVPRVHTPTGDRFSIIAWGRRRNLNERNGGVPSSAAAQVKGYRINTMEDAVEVAKQLVAAEPGAAAAKKAMPPPCASGDASSGGVATATRPAKRHKRRLQ | soluble
MAHHHHHHMRPKKSAFKLAQRGERHLLHGNSEVSNFYGISESGFSNSRPPPYLLRFDKCNDIIAYTNEVDSECLKQIKNLAMLDIIKGHVTILPDVHLGKGIIIGSVFLTKDFIIPNGVGVDIGCGVLCVKINKLKKKNLREHIINNIYKKIKRNVPLSFDSHEKEVFDAKKVLDGLVAKYASRNMAHIMTPRHLKQMGTLGGGNHFIEIAYDASDGGEEALSGNQSGETHQNDAPHSYTSEQNHSPESDIYILIHSGSRNIGKRTAEFYDELASQESKVKRNDLAYLDLKKEQGQNYLKDMQLCLEYAKCNRIYMMKIIERIIYEEVNCTLDWQSVINIHHNFCNQELVTYVHSGEVKREYMYVTRKGATSSKKNQLGVIPGNMKVGSYIVRGKGNKLSYSSCSHGCGRVLSRTHAKKIINQTDFVNIMRGVRCDTNARIRDEAPQAYKNLGQVLRNQDSLVHVVRRLLPLINVKGE | not soluble
MAHHHHHHMRPSSHRRPKSSAASDVGRRIRYSDAPPWDRSIRVNGDRALSAGRASRRGPEMMKAKLQGTPARPSHCNLVTTQAATLVATVPPVNEPQVELMSQLQDVVVRLSQSAVGEKQRLAHMQQRLDAYAALMREQDRMIDELRGMNIRLQKERDALILFRQQSLNHDLHLMNNLENDGGIDEEARRAYAKYEGQNNSYGTPCNGSLGAMTPRSRGFVRSLVAQLRDERRKRLEVEEQSSRMIGEQQLTIQRLEDRLRPQVVAPRSVLVARLESPHVSSHQRASNEEKDAVNTPLQCPCVDSVSAPMSSPNFSVVNQEKRLTEVNPMAPAVPPIPLPERNKEAVITEQVHQSPAVSMDQQITPPLEVPLKIHSTSYDDAAAILFDIRKRHGL | not soluble
MAHHHHHHMRRFCTARVSSYVKRAPLLLPRGGRRWRSGAGTTADGGGEKEYIADSFESTAGSNAYAAMELAAEARREIHELWLSAETALEREKRVQQVAALIEKYKLDPSTPREADVSRGLGDAFDRLLLLCLPLGKTDAKGTDNLERLMHLAGRNGRELSVRTIQHLFARTDSFAEALAVFYTMRRCHVAMNMEAYYSMLYSLQRLEEEGWGQHFRNEYEENGAPSEQAMDFIVKGISNALLPENKPWLGRVMFQDRNVPDRRYDTRDFDELDTAWTQRYKSGTPAGAH | not soluble
MAHHHHHHMRRSSMKFGLRQILSEELGKAAIFLRFKANEYIASTARACQTLTGAETNPEQANKRRKHRQVYEEILRQRQQVAQEAARRAMEGKSLRERLMASASAALKGLKEATSTNAGALALLQHCTAAHAAEVAVEQGIDVKSVTMQVEERKTGSQVGSETVVVGYIDAPNTSEEEMMAFAEQLSKKCPMANAMRGKIEWRRANGEVQHNDEQTTGNDNSVGSTSDKAGDAGSIPHGMPGTRYYSHESMRRGAGGVGDGDELHLPGVTKGSGKGPDK | soluble
MAHHHHHHMRRVVITGLGLVSPLASGVEETWKRLLAGESGARRVTEFEVDDLACQIACRIPVGDGTNGTFNPDLHMDPKEQRKVDPFIVYAVGAADQALDDAGWHPENDEDQVRTGVLIGSGIGGIEGIVEAGYTLRDKGPRRISPFFIPGRLINLASGHVSIKHKLRGPNHSVVTACATGTHAIGDAARLIAFGDADVMVAGGTESPVSRISLAGFAACKALSTERNDDPTAASRPYDEDRDGFVMGEGAGIVVLEELEHALARGAKIYAEVIGYGMSGDAFHITAPTESGEGAQRCMVAALKRAGIVPDEIDYINAHGTSTMADTIELGAVERVVGEAAAKISMSSTKSSIGHLLGAAGAAEAVFSTLAIRDNIAPATLNLDNPAAQTRIDLVPHKPRERKIDVALSNSFGFGGTNASLVLRRYTA | soluble
MAHHHHHHMRSLTRIASAGVRLDNIDLIGCVGATAAAKLPYTWQVGKSFSDNSASAAAAGGRTTSKITGSVYAVHQQHLFLPLTIEIGFGVQMKHDKDEEYVSRLVGGVLVRVNSSGTYGMLLDSSRFIMAGSAEMIILSKGQAPILRTSR | not soluble
MAHHHHHHMRVTHHNNNNERSADRPPPSPHPHSQYYRQRYSLFRKTHRHAALTCSTRSSSSSPAVQQLRVIHFFHSLRHATATQYSHTCSMRCILFSSLYLWRHRKVLQPAASWCWKKYGAATVRVSVWLYSRFNSSSTNGLAAAIPAGSFSSSPQNRGRLTGPSNGVTPCPMRSCAPPSHVPLRSRRRTQHPHAIAGKIGPST | soluble
MAHHHHHHMSASAPRVGLLGAANIAWRAWTGVRANGMSVTRVGCRDVDRGRNFVKRVCDALKIDEAAVPAVCSYEELVSAADVDVVYIAIPVKARDHWVRECIKYKKHVVGEKPPATDAEMLRSWIEALDQQNLLYMDGTMLSHGKRVKEICAAVKQMGGPVKHIFANVTLGGDEAFLANNIRTNPELEPHGALGDLGWYCIRYALHLMDFQMPTEVTGRILKQNDKGAIISFIGDMTFEVGGEVALVSFFVSFEAAFEQTLHITTTEGMLQLDDMCLPMTSRPETVYYEVHNSSYDNVCESHNLHTEVKHTVNGDAPNSQCTELWGDVARILYADGEGDARRLKAKEESSRYWATVSWKTQAVMDKMLESALIGRNAAPTA | not soluble
MAHHHHHHMSETSACPLNDFFDIDEENNLDEIKKEEKDVFSGNFLSYIYNQFEFCCINFFDELKKKDKRKNITLKKNYSDGYSKNDNGQCYYNVFDKILKKDVDTIKEVSLHSIYFNPHADWCECAHEFNLELNHEEAEFCIFNFFLKMYRYEERNKDLLLSILLECLYSKKDMKKAFHIQKENLKFLKEIKNIETSNFKESLNELINIIENTNFIQFNANEKKDMQKYYFKLYIIIKIKYPYGIYIFNCDDVYDIVVIDCNTFMQNKPKIMSFLSLRKFISFLNNIYSININEENIYDSFPIIVYESKECYHLSHSHLPLNLTACTPKEKKKNSVKNHLNQSGNENENENKD | not soluble
MAHHHHHHMSGKLEDIGELVLLIGDFHSPMRNLGLPDCFKDLLKTDKIKHVLCTGNVGCRENLELLKNIADSVHITKGDMDDEYDFPEDISLTIGDFKMSLIHGHQIIPWGDTNALLQWQKKHDSDIVISGHTHKNSIVRYEGKYFINPGSATGAFQPWLSQPTPSFILMAVAKSSIVVYVYEEKNGKTNVEMSELQK | not soluble
